Holding throughout (details): both partners purified
The target in experiment [1] is T1, ASB7-Elongin B-Elongin C ternary complex (human, UniProt Q9H672 11-318; Q15370 1-104; Q15369 17-112).
T1 construct: ASB7, human, residues 11-318; Elongin B, human, residues 1-104; ASB7 cloned into pET28-MKH8SUMO (Addgene plasmid #79526 is the vector); Elongin B and C in pCDFDuet-1; tag cleaved with TEV protease; also called ASB7-Elongin B/C; wild-type ASB7; source: E. coli BL21 (DE3), co-expressed, purified (Ni-NTA, Superdex 200); not shown: SUMO, N-terminal, cleaved; copies: + +
The experiment can be described thus: pull-down; GST or GST-fusion degron peptides (~50 µg) on glutathione magnetic beads, ~30 µg purified ASB7-Elongin B/C added; 20 mM Tris-HCl pH 7.5, 400 mM NaCl, 2 mM β-mercaptoethanol; 4 °C; glutathione elution, Coomassie-stained SDS-PAGE.

In experiment [2] the target is T2, ASB7-Elongin B-Elongin C ternary complex (wild-type ASB7, residues 11-318) (human, UniProt Q9H672 11-318; Q15370 1-104; Q15369 17-112).
T2 construct: human ASB7, residues 11-318; human Elongin B, residues 1-104; also called ASB7-Elongin B/C; WT; source: E. coli BL21 (DE3), co-expressed, purified (Ni-NTA, Superdex 200); not shown: SUMO, N-terminal, cleaved; copies: + +
T2 sequence (Q9H672 11-318, chain 1 of 3): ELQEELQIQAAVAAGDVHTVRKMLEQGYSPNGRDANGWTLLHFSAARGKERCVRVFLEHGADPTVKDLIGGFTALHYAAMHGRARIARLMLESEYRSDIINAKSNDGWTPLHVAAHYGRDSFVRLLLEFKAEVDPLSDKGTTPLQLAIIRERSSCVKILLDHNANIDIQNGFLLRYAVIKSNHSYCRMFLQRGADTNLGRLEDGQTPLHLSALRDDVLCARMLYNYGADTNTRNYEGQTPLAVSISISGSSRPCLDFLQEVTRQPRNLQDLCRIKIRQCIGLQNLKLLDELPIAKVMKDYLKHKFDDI
T2 sequence (Q15370 1-104, chain 2 of 3): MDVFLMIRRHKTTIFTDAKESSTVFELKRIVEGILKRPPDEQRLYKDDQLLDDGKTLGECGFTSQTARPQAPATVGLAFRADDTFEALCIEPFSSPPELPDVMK
T2 sequence (Q15369 17-112, chain 3 of 3): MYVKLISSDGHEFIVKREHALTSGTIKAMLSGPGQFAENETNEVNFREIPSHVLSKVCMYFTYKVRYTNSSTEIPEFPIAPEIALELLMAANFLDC
Briefly: ITC; peptide in the syringe titrated into ASB7-Elongin B/C in the cell; MicroCal PEAQ-ITC, 16 °C, 20 mM Tris-HCl pH 7.5, 150 mM NaCl; 39–156 μM protein, 0.8–4 mM peptide; repeated three times, mean ± SD.

Experiment [3] addresses T1, ASB7-Elongin B-Elongin C ternary complex. Briefly: ITC; peptide (0.8–4 mM) titrated into the ASB7 complex (39–156 µM); 16 °C; 20 mM Tris-HCl pH 7.5, 150 mM NaCl; MicroCal PEAQ-ITC. On the technique in general: ITC needs no label: the signal is the heat of the interaction.
Target sequence in this assay (Q9H672 11-318, chain 1 of 3): as the sequence (Q9H672 11-318, chain 1 of 3) above
Target sequence in this assay (Q15370 1-104, chain 2 of 3): as the sequence (Q15370 1-104, chain 2 of 3) above
Target sequence in this assay (Q15369 17-112, chain 3 of 3): as the sequence (Q15369 17-112, chain 3 of 3) above

B1: GST-fused CLIP2 degron peptide (peptide)
chain: SGPGAQQKEIGELKAVMEGIKMEHQLELGNLQAKHDLET
notes: degron stretch of CLIP2; pGEX vector; also called GST-tagged CLIP2; not shown: GST, N-terminal, kept
For the molecule B1, in experiment [1], the binding result was “binds”.

B2: LZTS1 degron peptide, 21 residues (RQELESLMKEQDLLETKLRSY) (peptide)
peptide: RQELESLMKEQDLLETKLRSY
notes: LZTS1 degron shortened by two residues at the C-terminus; source: synthetic peptide (Shanghai Apeptide Co., Ltd.)
For orientation: Kd means the concentration at which binding is half-saturated. Broadly, the stoichiometry N is a count of units in the complex or per binding partner. With B2, in experiment [2], the Kd turned out to be 900 nM and the “stoichiometry N” value amounted to 0.91.

B3: LZTS1 degron peptide, 17 residues (ELESLMKEQDLLETKLR) (peptide)
peptide: ELESLMKEQDLLETKLR
notes: LZTS1 degron, positions E1 to R17 of the degron numbering; also called 17-residue degron; source: synthetic peptide (Shanghai Apeptide Co., Ltd.)
Turning to B3, in experiment [2], binding was characterised by a dissociation constant (Kd) of 5100 nM and the “stoichiometry N” value stood at 1.12.

B4: GST-fused GIGYF1 degron peptide (peptide)
chain: SSAGPPGDLEDDEGLKHLQQEAEKLVASLQDSSLEEEQFT
notes: degron stretch of GIGYF1; pGEX vector; also called GST-tagged GIGYF1; not shown: GST, N-terminal, kept
With B4, the binding result in experiment [1] was “binds”.

B5: GST-fused CEP152 degron peptide (peptide)
chain: GHCFQELEKAKQECQDLKGKLEKCCRHLQHLERKHK
notes: degron stretch of CEP152; pGEX vector; also called GST-tagged CEP152; not shown: GST, N-terminal, kept
Turning to B5, the binding result in experiment [1] is reported as “binds”.

B6: CEP152 degron peptide (peptide)
peptide: ELEKAKQECQDLKGKLEKCCRH
notes: stretch of CEP152, a reported ASB7 substrate; source: synthetic peptide (Shanghai Apeptide Co., Ltd.)
Take B6: the “stoichiometry N” value in experiment [2] was found to be 1.27.

B7: GIGYF1 degron peptide (peptide)
peptide: EDDEGLKHLQQEAEKLVASLQDS
notes: stretch of GIGYF1, a reported ASB7 substrate; source: synthetic peptide (Shanghai Apeptide Co., Ltd.)
Take B7: in experiment [2], the Kd worked out at 1000 nM and the “stoichiometry N” value was determined as 0.78.

B8: DDA3 degron peptide (peptide)
peptide: PEKLEEILDEANRLAAQLEQCAL
notes: stretch of DDA3; the text names the region as residues 70-93 (24 residues) and the peptide as 23 residues; also called DDA3 peptide; source: synthetic peptide (Shanghai Apeptide Co., Ltd.)
Consider B8, for which, in experiment [2], the “stoichiometry N” value is 1.32.

B9: DDA3-degron 23-residue peptide (peptide)
peptide: SPEKLEEILDEANRLAAQLEQCAL
notes: DDA3; the region covering residues 70-93 was named as the potential degron and a 23-residue peptide was synthesized; residues 70-93 are 24 residues, the peptide is said to have 23; also called DDA3 residues 70–93; source: synthetic peptide (Shanghai Apeptide Co., Ltd.)
As to B9, the Kd in experiment [3] is 1300 nM.

B10: CLIP2 degron peptide (peptide)
peptide: EIGELKAVMEGIKMEHQLELGN
notes: stretch of CLIP2, a reported ASB7 substrate; source: synthetic peptide (Shanghai Apeptide Co., Ltd.)
B10: in experiment [2], the Kd amounted to 700 nM and the “stoichiometry N” value was found to be 0.71.

B11: CCDC17 degron peptide (peptide)
peptide: LEQEIRELQAEAGRTRGALEVLG
notes: stretch of CCDC17, a reported ASB7 substrate; also called CCDC17 peptide; source: synthetic peptide (Shanghai Apeptide Co., Ltd.)
With B11, in experiment [2], binding was put at a Kd of 1100 nM and the “stoichiometry N” value worked out at 0.76.

B12: GST-fused CCDC17 degron peptide (peptide)
chain: GMSRLFGLEQEIRELQAEAGRTRGALEVLGARIQELQAE
notes: degron stretch of CCDC17; pGEX vector; also called GST-tagged CCDC17; not shown: GST, N-terminal, kept
With B12, the binding result in experiment [1] is recorded as “binds”.

B13: LZTS1 degron peptide Y19R (peptide)
peptide: RQELESLMKEQDLLETKLRSRER
notes: numbers count on: the degron, E1 = third letter of the 23-residue peptide; source: synthetic peptide (Shanghai Apeptide Co., Ltd.)
As to B13, in experiment [2], binding was put at a Kd of 700 nM and the “stoichiometry N” value worked out at 0.71.

B14: GST-fused LZTS1-degron (peptide)
chain: VLQLQQEKRQLRQELESLMKEQDLLETKLRSYEREKTSFG
notes: degron stretch of LZTS1; pGEX vector; also called GST-tagged LZTS1; not shown: GST, N-terminal, kept
For the molecule B14, in experiment [1], the binding result is recorded as “binds”.

B15: LZTS1 degron peptide, 21 residues (ELESLMKEQDLLETKLRSYER) (peptide)
peptide: ELESLMKEQDLLETKLRSYER
notes: LZTS1 degron shortened by two residues at the N-terminus; source: synthetic peptide (Shanghai Apeptide Co., Ltd.)
Regarding B15, in experiment [2], the Kd worked out at 700 nM and the “stoichiometry N” value stood at 0.68.

The values above are taken from publication PMC11263391 (Nature Communications, 2024).
